In one data set the target is T1, full length PTH-R (Didelphis virginiana, UniProt P25107).
T1 construct: host or cells: native opossum kidney cells
The settings on record: native opossom kidney cells; Juppner et al. (1991); cited from earlier work.

Data set [1] in a line: Isoelectric focusing (IEF) of the purified peptide. The following applies: HPLC-purified peptide after CNBr cleavage. The class given is physicochemical. The protocol:
The precipitated PTH polymer was then dissolved in 70% formic acid, and a 500-fold (100 to 1000-fold excess can be used) molar excess of CNBr was added. […] After CNBr cleavage, the peptides were lyophilized and resuspended in distilled water. The peptide was purified resuspended in Buffer A (0.1% TFA) and further purified by HPLC using a VYDAC C-18 Hamilton semi-preparative column. Approximately 30 mg of peptide was injected onto the column. The peptide was then eluted with a gradient of 20-40% acetonitrile/0.1% TFA over 40 minutes. The major peak, eluting at approximately 15 minutes, was collected and lyophilized to dryness. Analysis of this peptide by SDS-PAGE and IEF indicated a single species of approximately 4000 daltons with an isoelectric point of approximately 8.7.

The next data set concerns the target T2, PTH receptor (Rattus norvegicus, UniProt P25961).
T2 construct: host or cells: UMR106 rat osteosarcoma cells
T2 sequence (P25961 27-591): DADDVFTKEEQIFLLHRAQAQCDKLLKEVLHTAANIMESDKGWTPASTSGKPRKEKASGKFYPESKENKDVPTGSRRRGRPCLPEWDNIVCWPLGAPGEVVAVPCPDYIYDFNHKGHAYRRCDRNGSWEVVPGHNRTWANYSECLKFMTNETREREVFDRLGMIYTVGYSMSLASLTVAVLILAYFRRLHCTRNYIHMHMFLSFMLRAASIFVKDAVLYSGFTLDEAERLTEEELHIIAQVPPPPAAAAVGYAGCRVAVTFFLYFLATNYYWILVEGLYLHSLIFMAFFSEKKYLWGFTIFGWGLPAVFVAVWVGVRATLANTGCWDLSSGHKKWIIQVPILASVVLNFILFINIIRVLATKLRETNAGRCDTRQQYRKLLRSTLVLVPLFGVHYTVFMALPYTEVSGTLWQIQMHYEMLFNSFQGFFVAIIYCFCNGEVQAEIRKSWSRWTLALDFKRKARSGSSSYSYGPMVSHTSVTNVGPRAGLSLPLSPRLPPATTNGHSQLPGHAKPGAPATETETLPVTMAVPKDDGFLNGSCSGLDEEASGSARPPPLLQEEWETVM
As to the kind of experiment: PTH analog activity assay: intracellular cAMP concentration in UMR106 cells. The class given is cell-based. The following applies: rat osteosarcoma cell line UMR106, cAMP by scintillation proximity assay, 1 mM IBMX, 5 minutes at room temperature. The protocol: PTH concentrations were determined by OD280 using an extinction coefficient of 6600 for the recombinant peptide and 5500 for the synthetic peptide. The rat osteosarcoma cell line UMR106 (ATCC CRL 1661) was used for in vitro testing of the peptide's ability to activate the PTH receptor. Activation of the PTH receptor leads to an intracellular rise in cAMP concentration.
The UMR106 cells were plated at 1.2×10^5 per well in a 48 well dish. The media (DMEM with fetal calf serum) was removed, and 1 mL of fresh media was applied. PTH (recombinant or synthetic) at various concentrations and 3-isobutyl-1-methyl xanthine (IBMX) at 1 mM final concentration were then added to each well of the plate, which was then incubated for 5 minutes at room temperature. The media was then removed and the cells quickly washed with PBS. The cells were then extracted three times with 1 mL of absolute ethanol. The three extractions were combined and the ethanol removed by evaporation in a "speed vac" centrifuge. The extract was then redissolved in 0.5 mL of buffer (0.05M NaAcetate, pH=5.8, and 0.01% azide). The cAMP concentration was determined by scintillation proximity assay using a kit available from Amersham.
(SPA uses beads or plates that emit light when radiolabelled molecules are held near them.)

Data on two substances can be found in patent US5814603A, “Compounds with PTH activity” (Affymax Technologies N.V., priority 1993, dated 1998).

Ends that are not written are not given here.

T1 sequence (P25107 27-585): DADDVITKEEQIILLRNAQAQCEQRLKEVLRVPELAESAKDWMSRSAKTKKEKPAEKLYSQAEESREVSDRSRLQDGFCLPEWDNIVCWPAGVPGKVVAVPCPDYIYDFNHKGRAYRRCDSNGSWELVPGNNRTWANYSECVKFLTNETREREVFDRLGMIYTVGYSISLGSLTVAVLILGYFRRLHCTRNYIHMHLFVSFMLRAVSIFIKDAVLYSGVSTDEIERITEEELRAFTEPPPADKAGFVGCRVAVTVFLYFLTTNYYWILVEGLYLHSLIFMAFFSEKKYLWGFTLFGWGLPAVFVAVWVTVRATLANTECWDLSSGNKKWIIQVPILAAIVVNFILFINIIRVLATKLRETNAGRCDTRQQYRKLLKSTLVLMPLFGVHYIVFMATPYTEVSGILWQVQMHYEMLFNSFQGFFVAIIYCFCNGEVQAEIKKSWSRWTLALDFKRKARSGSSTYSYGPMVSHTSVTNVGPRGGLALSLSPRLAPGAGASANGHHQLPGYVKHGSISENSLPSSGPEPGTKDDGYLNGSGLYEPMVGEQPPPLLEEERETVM

By Kd is commonly meant the equilibrium constant for the complex coming apart. As for “PTH (1-34): PTH ligand bound by the native full length PTH receptor, per Juppner et al. 1991”, the Kd in the data set with full length PTH-R is approximately 0.5 nM. “recombinant PTH analog: 35 amino acid Ho/Hol PTH analog (SEQ ID NO:4/5) from CNBr cleavage of 8-mer fusion protein expressed from pBAD/PTH/OC in E. coli (SVSEIQLLHNLGKHLNSLERVEWLRKKLQDVHNYX; X: randomised place (mixture); also: X35: homoserine or homoserine lactone (mixture))”: the isoelectric point entry in data set [1] is recorded as “approximately 8.7”. The “activity relative to synthetic human PTH (more active)” value with PTH receptor is on record as 2-to-10 fold.
